These are literature values, as cited in paper PMC8746970, “Determination of the Peptide AWRK6 in Rat Plasma by Liquid Chromatography-Tandem Mass Spectrometry (LC-MS/MS) and Its Application to Pharmacokinetics” (Molecules, 2021).

The conditions of the data set: in vivo; cited from earlier work.

Consider glucagon-like peptide-1 [GLP-1], for which the elimination half-life was ~ 2 min.
